{"source": "a protein production outcome set (Wang et al. 2014)", "test": "label from the status in PepcDB records"}
{"sequence": "MSLANLSELPNIGKVLEQDLIKAGIKTPVELKDVGSKEAFLRIWENDSSVCMSELYALEGAVQGIRWHGLDEAKKIELKKFHQSLEGHHHHHH", "values": [{"measurement": "protein production", "result": "not failed"}]}
{"sequence": "MDTMRSLRFISAEALVSHPQVARQSLDSVAHNLYPLLFKASYLLEQAEVTRAVLGRWPLEEFRLGALLGPGADHPQDLRDRTCRACLEALVRGLADHVLQDRSRRRLRVADLTGIRDVQVQRCPCGRALGRWGRTQLLARTCCELQAEPLAAGRPVEVLADLFVTEGNFEAVVQALRPAGPAPLRVHCPSFRADSLSPSQLLHVLRLAGPGALRKLEVVHNVRLHAGHVQQLLAQVGFPRLASLTLPTKAFDAPPTYASTPDGEDPLLASIARELSKMAQLTELSVAFSTLTGKIPTLLGPLQTPLRVLDLANCALNHTDMAFLADCAHAAHLEVLDLSGHNLVSLYPSTFFRLLSQASRTLRILTLEECGIVDSHVGMLILGLSPCHRLRQLKFLGNPLSARALRRLFTALCELPELRCIEFPVPKDCYPEGAAYPQDELAMSKFNQQKYDEIAEELRAVLLRADREDIQVSTPLFGSFDPDIQETSNELGAFLLQAFKTALENFSRALKQIE", "values": [{"measurement": "protein production", "result": "failed"}]}
{"sequence": "MSAIQNGTDEVRVIDTGAPPTRFARGWHCLGLASEFSDGKPHQISAFGTELVVFAGEDGKLNVLNAFCPHMGGNLADGTVKGDTIACPFHDWRWRGDGKCADIPYARRVPPLARTKSWLTLERNGQLFVWNDPQNRKPPAEVTIPEISVFGDEGWTDWVWNKLEVRGSHCREIVDNVVDMAHFFYVHYGMPTYFKNVFEGHVATQVMRSKPRADAVDVKLGTNYDTESASDASYFGPSYMIDKLWTEGDDSGEPNIMLINCHYPISADSFMLQYGVMVKKPEGVPDAVANGIAAQVAAGVAIGFEQDVEIWKKKSSIDNPLLSEEDGPVYQLRRWYEQFYVDVEDINPEMTNRFEFEIDTDRALKNWQVEVDANLAAGRSAIPSPVS", "values": [{"measurement": "protein production", "result": "not failed"}]}
{"sequence": "MATRFDVKTIVKDKRFWIASFIIVWAAGLQGHMMWLQKQESFKQKFGTIDEDDHK", "values": [{"measurement": "protein production", "result": "failed"}]}
{"sequence": "PLLTEEALFGEDRHVLGEKGVVVRVFSDFQCPYCQRLAREVLPALKAMAREGRLRLAYRHFPLYEIHPEAVPAAVASECAAAQGAFWAYHDLLMAGSGWDYPALARRLGLDPKAFQACLEDPASRAPVEADRALAERLGLPGTPSVFVGPFRLPNPFDLERYRDYLALAEAL", "values": [{"measurement": "protein production", "result": "failed"}]}
{"sequence": "MYMILELLNIIGIIAFTISGSLKGTNKGLDIFGVVTLGVITSYAGGIIADILLGIYPPQILKELNYLLLSVGISIFVFYFYKWLQTNPIKMIIAISDAVGLSTFATLGASLAYSYGLNPISVGLIAAIVGTGGGVIRDVLVNEIPMVLTKEIYATAALLSGFIYYFTTPYLHHDSLFVAFLGSFLLRILSIKYNFNLPKREDNKS", "values": [{"measurement": "protein production", "result": "failed"}]}
{"sequence": "MEDSGKTFSSEEEEANYWKDLAMTYKQRAENTQEELREFQEGSREYEAELETQLQQIETRNRDLLSENNRLRMELETIKEKFEVQHSEGYRQISALEDDLAQTKAIKDQLQKYIRELEQANDDLERAKRATIMSLEDFEQRLNQAIERNAFLESELDEKENLLESVQRLKDEARDLRQELAVQQKQEKPRTPMPSSVEAERTDTAVQATGSVPSTPIAHRGPSSSLNTPGSFRRGLDDSTGGTPLTPAARISALNIVGDLLRKVGALESKLASCRNLVYDQSPNRTGGPASGRSSKNRDGGERRPSSTSVPLGDKGLGKRLEFGKPPSHMSSSPLPSAQGVVKMLL", "values": [{"measurement": "protein production", "result": "failed"}]}
{"sequence": "MLEQGTISIHTENIFPIIKKSLYSDHQIFLRELVSNAVDAIQKLKMVSRAGEYAGVVDEPEIQLAIDKDKKTLSITDNGIGMTAEEVKKYINQVAFSSAEEFIHKYQGKSDQPIIGHFGLGFYSSFMVAQKVEIDTLSYQEGAQAVHWSCDGSPEFTLEESSRTTIGTTITLTLLPDEEEYLESARVKNLVKTYCDFMPVPIKLDGEVLNRQKAPWRESPSNLTKEDYLEFYRYLYPFQEEPLLWVHLNTDYPFIINGILYFPKMRPDVDVTKGQIKLFCNQVFVSDNCEEIIPQFLVPMRGVIDSTDIPLNVSRSALQGDRTVRKIGDYIAKKVGDRLKELYRDDREQYISAWKDLSTFVKFGVLNDEKFKKQVEDIIIFRSTVKWEQPAETPAVEVQSQEGDVWQDITPSPDSPTPGLPYTTLKEYLERNKERHENRVFYSTDEATQATYIELHKNQGLEVLFLDSFIDTHFINFLEQEYQDVKFTRVDSDLDNTLLEQDKAGEIVDPTTNKTKSEIIKELFEKSLNKPKVNIRTEALKSDDPQGTPPAIVLLPEFLRRMREMTAMMQQQNADFPEDHILLVNTAHPLIQNLVNLNQGAIIQGDGESTTNPLVNLICQHVYDLALMSQKGFDAEGMKSFVERSNDVLTKLTQQAKN", "values": [{"measurement": "protein production", "result": "failed"}]}
{"sequence": "MKDKIIDNAITLFSEKGYDGTTLDDIAKSVNIKKASLYYHFDSKKSIYEQSVKCCFDYLNNIIMMNQNKSNYSIDALYQFLFEFIFDIEERYIRMYVQLSNTPEEFSGNIYGQIQDLNQSLSKEIAKFYDESKIKMTKEDFQNLILLFLESWYLKASFSQKFGAVEESKSQFKDEVYSLLNIFLKK", "values": [{"measurement": "protein production", "result": "failed"}]}
{"sequence": "MALVLTFLGKGGVGRTTVAIAAAKKLAQAGQRVLVLGQDPSLAWQWGITLSETAQGVEANVDGLLLSSTHLLERGWEKLKEVEAQYLRSPALKNIYGEELGVLPGMDEVLVLNALREYELSGRYDVLIYDGPGNLSTLRMLGIPEIASWYWRRFQKVLADSEVVQTLSPFVQPVASAVLSVNWSPDQMLNHPDGPQNLLQQGKAAIADPNRFAAYLVTSTDSLAQKAAQSYWGGAQQVGVTVKGVIQTPLGNGSLDANLFDPLLIAALPSYNQGNWQPLMDALPNPQAMGSAPRPLEIDVNARQVKVFLPGFDKRQVKLTQSGPELTIEAGDQRRNIDLPGNLRGKGVTGAKFQGGYLIVSFLEHHHHHH", "values": [{"measurement": "protein production", "result": "failed"}]}
{"sequence": "MTLRAARPEFLDLFPAGAEARRLADGFTWTEGPVYVPARSAVIFSDVRQNRTWAWSDDGQLSPEMHPSHHQNGHCLNKQGHLIACSHGLRRLERQREPGGEWESIADSFEGKKLNSPNDVCLAPDGSLWFSDPTYGIDKPEEGYGGEMELPGRWVFRLAPDGTLSAPIRDRVKPNGLAFLPSGNLLVSDTGDNATHRYCLNARGETEYQGVHFTVEPGKTDGLRVDAGGLIWASAGDGVHVLTPDGDELGRVLTPQTTSNLCFGGPEGRTLYMTVSTEFWSIETNVRG", "values": [{"measurement": "protein production", "result": "failed"}]}
{"sequence": "MGTTGFTIIDLIILIVYLLAVLVAGIYFSKKEMKGKEFFKGDGSVPWYVTSVSIFATMLSPISFLGLAGSSYAGSWILWFAQLGMVVAIPLTIRFILPIFARIDIDTAYDYLDKRFNSKALRIISALLFIIYQLGRMSIIMYLPSAGLSVLTGIDINILIILMGVVAIVYSYTGGLKSVLWTDFIQGVILISGVVLALFVLIANIKGGFGAVAETLANGKFLAANEKLFDPNLLSNSIFLIVMGSGFTILSSYASSQDLVQRFTTTQNIKKLNKMLFTNGVLSLATATVFYLIGTGLYVFYQVQNADSAASNIPQDQIFMYFIAYQLPVGITGLILAAIYAASQSTISTGLNSVATSWTLDIQDVISKNMSDNRRTKIAQFVSLAVGLFSIGVSIVMAHSDIKSAYEWFNSFMGLVLGLLGGVFILGFVSKKANKQGAYAALIVSTIVMVFIKYFLPPTAVSYWAYSLISISVSVVSGYIVSVLTGNKVSAPKYTTIHDITEIKADSSWEVRH", "values": [{"measurement": "protein production", "result": "failed"}]}
{"sequence": "MSLQTCVLHRLSLPLKFPMRTAHGHIREKQAILVQLVDADGIEGWSECVALAEPTYTEECTDTAWVMLVHHLVPRFARWLRAASQDQDVDPRTVCEALRDVRGNRMSVAAIEMAVWDWYAARTGQPLVGLLGGGRDRVEVSATLGMSESLDVLIQSVDAAVEQGFRRVKLKIAPGRDRAAIKAVRLRYPDLAIAADANGSYRPEDAPVLRQLDAYDLQFIEQPLPEDDWFDLAKLQASLRTPVCLDESVRSVRELKLTARLGAARVLNVKPGRLGGFGATLRALDVAGEAGMAAWVGGMYETGVGRVHGLIAAALPLMRYATDLGPSDRYFEQDVLKEPIAFVEPGVIQVPQCAGVADWVDRDAVRRFSTATWSVDLRTLEGHHHHHH", "values": [{"measurement": "protein production", "result": "not failed"}]}
{"sequence": "MSLTRTQPVELVTMVMVTDPETQRVLVEDKVNVPWKAGHSFPGGHVEVGEPCATAAIREVFEETGLRLSGVTFCGTCEWFDDDRQHRKLGLLYRASNFTGTLKASAEGQLSWLPITALTRENSAASLPEFLQVFTGTASTLVSDSWNGNLRIDEGHHHHHH", "values": [{"measurement": "protein production", "result": "not failed"}]}
{"sequence": "MKIIELPIEFEFNGQKQCIYPSLIILHNELTLVDTGYPSFLPLIENAILKHGYEMKNLKNIIITHYDDDHIGAVYDFKVKYPNINVIASEIESNYINGDIKSERLVQAEEMLERMPNEEKEFGKWFIQQLKNIKHISVDEKVHDGQMILNNECQVVATPGHTSGHISLYFPNLDCVITGDAAVQENRELVIANPNFCLDIEKAKQSLNRIKSFKAAQYYCYHGGKLTV", "values": [{"measurement": "protein production", "result": "failed"}]}
{"sequence": "SAAVKDSCGKGEMATGNGRRLHLGIPEAVFVEDVDSFMKQPGNETADTVLKKLDEQYQKYKFMELNLAQKKGRLKGQIPEIKQTLEILKYMQKKKESTNSMETRFLLADNLYCKASVPPTDKVCLWLGANVMLEYDIDEAQALLEKNLSTATKNLDSLEEDLDFLRDQFTTTEVNMARVYNWDVKRRNKDDSTKNKA", "values": [{"measurement": "protein production", "result": "not failed"}]}
{"sequence": "MELLKIDCLGKSLRLEGSLAGWQLLFWDNNLVSQKAASVDNGGLKVHQFELTQHHSQLASDSGEAQVLENKILVRLETDVVWQPFRFDYRLLVDEEVIAQGTRTEKDIERQMPEIPVTAPQKFSFVGLASLGFKLLKSAKVIKVVLAGASVAAYSWLFSFQFALALIACLVFHEYGHIRAMKYFGMKTKGIYLIPFMGGLALSDEKINTRWQDVVISIMGPTFGLLMSVGSLIAYHFTDNIFFAGLAAFNALLNLFNLLPILPLDGGHILKSISFSMNSIMGLIACVIGAAFGVYISYTLGLALLGFLLLIGSLEIVFEWRSRHQSHLLPLDRYGQIFSTIWYLATVAALVGIIWHLAGTGDDMLSLPLQILRS", "values": [{"measurement": "protein production", "result": "failed"}]}
{"sequence": "MISMKEEIKKVIEETGLPIITDEKSGAAQWVDLRELRLSYIISVENIKPFYEGLKEGKLLGTKCKKCGRLFFPPQKDCPSCFDSDIEWVELKNEGTLETMTVVFVRPPSFSAYDPYPVAIAKLDDGPRILAWYKGDPQQAKPGMRVKIQVGKRKEGYLMYEIAPALEHHHHHH", "values": [{"measurement": "protein production", "result": "failed"}]}
{"sequence": "MSGDVQPRKRKDKRRKRDDDESSHGVHITKMGNEDLHLHVHHDHGTGGHWCAKIIFFALMAVLLGLVGLIIMENRGLEDLDTPLSESRFSKVFDGWVDEHRDEHDGHDVQEPSGEALDDHDEHDDHDDHEDEDEEPLTEELEEELEEEEEPTEEDEPAADEEYEEDEDEENNAGENITAEDAEEEEEEEDNDDEGTVEATVEATTEATTEATGEYEAEEDDEDEAAADDDAVESTEAPLSKAEEQEDDEDEDEEEQEIEESVEPERSQYAAQSAPAKDNNDDDDDDDQDKNDADDGDDDEFESLAQQFENDPEDTVPAKAVESEEQDQDQADEEEPKEEGSSWLASQIKPKEAAPAPAEKEDPFEQELRKANEEMIRENYAQALRSFNTLTTNFAHEPSAHLGRARLLELLAKKERSNQRLWEAIDAYKRYLAFGELVASNQEFQTAGESCIENLRFLGHHRQATTIHELLINRLPEDPRLRNQLSLTYLMVNNLQQVEKVAVETLKLWPNNAVAQLHYGLALRQFHADYAKALPYLKYAVESGEEGTQEAFFYLSLGETMQRLSMKSEALEVYGKGVAKGFFASLYQRSLYNEPRLRAQPFWQPKETGYERQLEKLTLNWRAIRDEGLALLGRSGFFEDEAELLRDKGVWQQYELYAQGRRVKDNCRRAPITCSLLEEFPESAGCRRGQVKFSVMQAKTHVWPHCGPTNCRLRAHLTLAAPEPEKASLRVAEQERTWREGELFIFDDSFEHEVWHNGSQSRLVLILDMWHPQLSAAQRRSLSPI", "values": [{"measurement": "protein production", "result": "failed"}]}
